{"source": "paper PMC8299219", "about": "(Cell, 2021)", "data": [{"biological_target": "SARS-CoV-2 S ectodomain trimer, prefusion-stabilized, 2P variant (Wrapp et al., 2020) (SARS-CoV-2, Wuhan-Hu-1, UniProt P0DTC2, stabilised)", "values": [{"binder": "C89A10 (antibody, V domains shown) VH: EVQLLESGGGLVQPGGSLRLSCAASGFIFSSYAMSWVRQAPGKGLEWVSVISGSGDITYYADSVKGRFTISRDNSKNTLYLQMNSLRAEDTAVYYCAKDIDEPTAMVESWGYWGQGTLVTVSS VL: QSALTQPRSVSGSPGQSVTISCTGTSSDVGGYNYVSWYQQHPGKAPKLMIYDVSKRPSGVPDRFSGSKSGNTASLTISGLQAEDEADYYCCSYAGSWVFGGGTKLTVL", "binding result": "binds"}, {"binder": "C53F10 (antibody, V domains shown) VH: EVQLVQSGAEVKKPGESLRISCKGAGYSFTSYWITWVRQMPGKGLEWMGRIDPSDSYTNYSPSFEGHVTISADKSISTAYLQWSSLKASDTAMYYCARLYCGGDCPPGYWGQGTLVTVSS VL: not shown", "binding result": "binds"}, {"binder": "C102A4 (antibody, V domains shown) VH: QVQLVQSGAEVKKPGSSVKVSCKASGGTFSSYAISWVRQAPGQGLEWMGGIIPIFGTANYAQKFQGRVTITADESTSTAYMELSSLRSEDTAVYYCATQPSYGDLDLFDYWGQGTLVTVSS VL: not shown", "binding result": "binds"}, {"binder": "C18C10 (antibody, V domains shown) VH: EVQLVESGGGLVQPGGSLRLSCAASGFTFSNYAISWVRQAPGKGLEWVSLISGSGGSTYYADSVKGRFTISRDNSKNTLYLQMNSLRAEDTAVYYCATTNIPPFSGYYLDAFDIWGQGTMVTVSS VL: not shown", "binding result": "binds"}, {"binder": "C12E7 (antibody, V domains shown) VH: QVQLVESGGGVVQPGRSLRLSCAASGFTFSSYGMHWVRQAPGKGLEWVAVISYDGSNKYYADSVKGRFTISRDNSKNTLYLQMNSLRAEDTAVYYCAKSGYSYAYPMVYFDYWGQGTLVTVSS VL: SYELTQPPSVSVAPGKTARITCGGNNIGSKSVHWYQQKPGQAPVLVVYDDSDRPSGIPERFSGSNSGNTATLTISRVEAGDEADYYCQVWDSSSDHPGVFGGGTKLTVL", "binding result": "binds"}, {"binder": "C93D1 (antibody, V domains shown) VH: QVQLVESGGGVVQPGRSLRLSCAASGFTFSNYGMHWVRQAPGKGLEWVAVISYDGSNKYYADSVKGRFTISRDNSKNTLYLQMNSLRAEDTAVYYCAKGSYFHSNYWDYFDYWGQGTLVTVSS VL: not shown", "binding result": "binds"}, {"binder": "C15D10 (antibody, V domains shown) VH: QVQLQQSGPGLVKPSQTLSLTCAISGDSVSSNSAAWNWIRQSPSRGLEWLGRTYYRSKWYNDYAVSVKSRITINPDTSKNQFSLQLNSVTPEDTAVYYCAREQQLVSHDYYYYYGMDVWGQGTTVTVSS VL: QSALTQPASVSGSPGQSITISCTGTSSDVGGYNYVSWYQQHPGKAPKLMIYDVSNRPSGVSNRFSGSKSGNTASLTISGLQAEDEADYYCSSYTSSSSLFGTGTKVTVL", "binding result": "binds"}, {"binder": "C41P1 (antibody, V domains shown) VH: QVQLVESGGGVVQPGRSLRLSCAASGFTFSSYAMHWVRQAPGKGLEWVAVISYDGRNKYYADSVKGRFTISRENSKNTLYLQMNSLRAEDTAVYYCARDLGVVVPAAIGWVNPRDDYYYYYGMDVWGQGTTVTVSS VL: SYELTQPPSVSVSPGQTARITCSGDALPKQYAYWYQQKPGQAPVLVIYKDSERPSGIPERFSGSSSGTTVTLTISGVQAEDEADYYCQSADSSGTYRVFGTGTKVTVL", "binding result": "binds"}, {"binder": "C63C8 (antibody, V domains shown) VH: EVQLVESGGGLVQPGGSLRLSCAASGFTFSSYWMSWVRQAPGKGLEWVANIKQDGSEKYYVDSVKGRFTMSRDNAKNSLYLQMNSLRAEDTAVYYCASLRWLQADFEYWGQGTLVTVSS VL: NFMLTQPHSVSESPGKTVTISCTRSSGSIASNYVQWYQQRPGSSPTTVIYEDNQRPSGVPDRFSGSIDSSSNSASLTISGLKTEDEADYYCQSYDSTNHVFGTGTKVTVL", "binding result": "binds"}, {"binder": "G32B6 (antibody, V domains shown) VH: QVQLVQSGAEVKKPGASVKVSCKASGYTFTGYYMYWVRQAPGQGLEWMGWINPNSGGTNYAQKFQGRVTMTRDRSISTAYMELSRLRSDDTAMYYCARDRVGDILTGYYGYWGQGTLVTVSS VL: QSALTQPPSASGSPGQSVTISCTGTSSDVDSYNYVSWYQQHPGKAPKLMIYEVSKRPSGVPDRFSGSKSGNTASLTVSGLQAEDEADYYCSSYAGSNNWVFGGGTKLTVL", "binding result": "binds"}, {"binder": "G32A8 (antibody, V domains shown) VH: QVQLVQSGAEVKKPGASVKVSCKASGYTFTGYYMHWVRQAPGQGLEWMGWINPNSGATNYAQKFQGRVTMTRDTSINTAYMELNRLRSDDTAVYYCARDIVFSRLGASFDYWGQGTLVTVSS VL: QSALTQPPSASGSPGQSVTISCTGTSSDVGGYNYVSWYQQHPGKAPKLMIYEVTKRPSGVPDRFSGSKSGNTASLTVSGLQAEDEADYYCSSYAGSNYNVFGGGTKLTVL", "binding result": "binds"}, {"binder": "C18C11 (antibody, V domains shown) VH: EVQLVESGGGVVQPGRSLRLSCAASGFTFSSYAMHWVRQAPGKGLEWVAVISYDGSNKYYADSVKGRFTISRDNSKNTLYLQMNSLRAEDTAVYYCASLITMVRGVFDYWGQGTLVTVSS VL: not shown", "binding result": "binds"}, {"binder": "C53F9 (antibody, V domains shown) VH: QVQLVQSGAEVKKPGASVKVSCKASGYTFTSYGISWVRQAPGQGLEWMGWISAYNGNTNYAQKLQGRVTMTTDTSTSTAYMELRSLRSDDTAVYYCARVGTYYYDSSAYYFDYWGQGTLVTVSS VL: not shown", "binding result": "binds"}, {"binder": "C63C7 (antibody, V domains shown) VH: not shown VL: QSVLTQPPSVSGAPGQRATISCTGSSSNIGAGYDVHWYQQLPGTSPKLLIYGNSNRPSGVPDRFSGSKSGTSASLAITGLQAEDEAEYYCQSYDSSLSGSVVFGGGTKLTVL", "binding result": "binds"}, {"binder": "G32C4 (antibody, V domains shown) VH: EVQLVQSGAEVKKPGESLKISCKGSGYSFISYWIGWVRQMPGKGLEWMGIIYPGDSDTRYSPSFQGQVTISADKSISTAYLQWSSLKASDTAMYYCARMTQGYGTIRPLYYFDYWGQGTLVTVSS VL: not shown", "binding result": "binds"}, {"binder": "G32Q3 (antibody, V domains shown) VH: QVQLVQSGTEVKKPGASVKVSCKASGYTFPNYGITWVRQAPGQGLEWVGWISAYNGNTNYAQKLQGRVTMTTDTSTNTAYMELRSLRSDDTAVYYCARSIAVAGTTAEFDYWGQGTLVTVSS VL: not shown", "binding result": "binds"}, {"binder": "G32Q4 (antibody, V domains shown) VH: QVQLVESGGGVVQPGRSLRLSCAASGFTFSRYAMQWVRQAPGKGLEWVAVISYDGNNRYYADSVKGRFTISRDNSKNTLYLQMNSLRAEDTAVYYCARGPPGYYDSSGYYQTPEYFQHWGQGTLVTVSS VL: QSVLTQPPSVSGAPGQRVTISCTGSSSNIGVGYDVHWYQQFPGTVPKLLIYGNSNRPSGVPDRFSGSKSGTSASLAITGLQAEDEADYYCQSYDSSLSGVVFGGGTKLTVL", "binding result": "binds"}, {"binder": "C12D5 (antibody, V domains shown) VH: QVQLVESGGGVVQPGRSLRLSCAASGFTFSSYVMHWVRQAPGKGLEWVAVISYDGSNKYYADSVKGRFTISRDNSKNTLYLQMNSLRAEDTAVYYCARDPGARRDGYVSLGGSYDWFDPWGQGTLVTVSS VL: QSVLTQPPSVSGAPGQRVTISCTGTSSNIGAGYDVHWYQQLPGTAPKLLIYGNSNRPSGVPDRFSGSKSGTSASLAITGLQAEDEADYYCQSYDSSLSGWVFGGGTKLTVL", "binding result": "binds"}, {"binder": "C98C7 (antibody, V domains shown) VH: EVQLVESGGGLVQPGGSLRLSCAASGITVSSNYMSWVRQAPGKGLEWVSVIYSGGSTFYADSVKGRFTISRDNSKNTLYLQMSSLRAEDTAVYYCARDLVVFGMDVWGQGTTVTVSS VL: EIVLTQSPGTLSLSPGETATLSCRASQSVGSSYLTWYQQKPGQAPRLLIYGASSRATGIPDRFSGSGSGTDFTLTISRLEPEDFAVYYCQHYGSSPTFGQGTKVEIK", "binding result": "binds"}, {"binder": "C63D3 (antibody, V domains shown) VH: EVQLVESGGGLVQPGGSLRLSCAASGFTFSSYDMHWVRQATGKGLEWVSVIGTAGDTYYPGSVKGRFTISRENAKNSLYLQMNSLRAGDTAVYYCARGHSTGQGYSYYYYMDVWGKGTTVTVSS VL: not shown", "binding result": "binds"}, {"binder": "C15D4 (antibody, V domains shown) VH: QVQLQQWGAGLLKPSETLSRTCAVYGGSFSGYYWTWIRQPPGMALEWIGDINHGGVTNYNPSLKSRVTISVDTSKNQFSLRLTSVTAADTAVYYCARRLLGDPRPASSSLSLRRVSYMDVWDKGTTVTVSS VL: DIQMTQSPSSMSASVGDRVTITCRASQSISNYLNWYQQKPGRAPKLLIYGASSLQSGVPSRFGGSGSGTEFTLTITALQPEDSATYYCQQIHGAPPITFGQGTRLEIK", "binding result": "binds"}, {"binder": "C53E1 (antibody, V domains shown) VH: EVQLVQSGAEVKKPGESLKISCKGSGYSFTSYWIGWVRQMPGKGLEWMGIIYPGDSDTTYSPSFQGQVTISADKSISTAYLQWSSLKASDTAMYYCARRSNSPFPLIDYWGQGTLVTVSS VL: not shown", "binding result": "binds"}, {"binder": "C30C2 (antibody, V domains shown) VH: EVQLVESGGGLVQPGGSLRLSCAASGFTVSSNYMSWVRQAPGKGLEWVSVIYSGGSTYYADSVKGRFTISRDNSKNTLYLQVNSLRAEDTAVYYCARDGRDNAFDIWGQGTMVTVSS VL: not shown", "binding result": "binds"}, {"binder": "C53F11 (antibody, V domains shown) VH: QVQLQESGPGLVKPSETLSLTCTVSGYSISSGYYWGWIRQPPGKGLEWIGSIYHSESTYYNPSLKSRVTISVDTSKSQFSLKLSSVTAADTAVYYCGRSLWDSIWEDHIGAVDYWGQGTLVTVSS VL: QSALTQPASVSGSPGQSITISCTGTSSDVGNYNLVSWYQQHPGKAPKLMIYEGSKRPSGVSNRFSGSKSGNTASLTISGLQAEDEADYYCCSYAGSSILWVFGGGTKLTVL", "binding result": "binds"}, {"binder": "G32B1 (antibody, V domains shown) VH: QVQLVESGGGVVQPGRSLRLSCAASGFTFSSYGMHWVRQAPGKGLEWVAVISYDGSNKYYADSVKGRFTISRDNSKNTLYLQMNSLRAEDTAVYYCAKVVAPYYYYYYGMDVWGQGTTVTVSS VL: QSALTQPASVSGSPGQSITISCTGTSSDVGGYNYVSWYQQHPGKAPKLMIYEVSNRPSGVSNRFSGSKSGNTASLTISGLQAEDEADYYCSSYTSSSTSWVFGGGTKLTVL", "binding result": "binds"}, {"binder": "C12C10 (antibody, V domains shown) VH: not shown VL: QSALTQPASVSGSPGQSITISCTGTSSDVGGYNYVSWYQQHPGKAPKLMIYDVSYRPSGVSNRFSGSKSGNTASLTISGLQAEDEADYYCSSYTSSSILGVFGGGTKLTVL", "binding result": "binds"}]}]}
